According to patent US20140227324A1:

Target: mouse IL12Rβ1 (IL12 Receptor Beta 1, transmembrane-containing form) (mouse) (UniProt Q60837)
Experiment: cell-based or functional assay

Sequence of UniProt Q60837 (Q60837 20-738): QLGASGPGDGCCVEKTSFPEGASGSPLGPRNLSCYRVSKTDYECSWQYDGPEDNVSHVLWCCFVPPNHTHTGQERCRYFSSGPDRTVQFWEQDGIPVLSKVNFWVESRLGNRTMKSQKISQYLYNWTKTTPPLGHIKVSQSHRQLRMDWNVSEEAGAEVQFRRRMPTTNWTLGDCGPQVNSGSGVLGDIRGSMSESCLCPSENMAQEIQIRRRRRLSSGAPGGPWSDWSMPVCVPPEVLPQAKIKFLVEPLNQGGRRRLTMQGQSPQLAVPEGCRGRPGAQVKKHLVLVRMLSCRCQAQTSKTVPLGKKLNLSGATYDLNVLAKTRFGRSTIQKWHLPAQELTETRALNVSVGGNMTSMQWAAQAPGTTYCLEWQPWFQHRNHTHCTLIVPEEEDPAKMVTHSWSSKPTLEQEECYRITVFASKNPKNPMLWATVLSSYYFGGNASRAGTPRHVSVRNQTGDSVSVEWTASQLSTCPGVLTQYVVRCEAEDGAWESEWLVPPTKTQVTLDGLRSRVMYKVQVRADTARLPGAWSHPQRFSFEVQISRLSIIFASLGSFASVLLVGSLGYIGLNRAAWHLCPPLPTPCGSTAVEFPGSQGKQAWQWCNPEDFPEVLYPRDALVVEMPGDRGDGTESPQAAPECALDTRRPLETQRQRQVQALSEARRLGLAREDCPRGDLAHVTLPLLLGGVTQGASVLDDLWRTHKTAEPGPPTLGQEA

Substance	NIH/3T3 migration toward IL12(p40)2, IL12Rβ1ΔTM co-transfected alongside IL12Rβ1 [% increase]	STAT4 activity (GAS-promoter luciferase reporter), IL12Rβ1ΔTM co-transfected alongside IL12Rβ1 and IL12Rβ2 [% increase]
IL12(p40)2 (ligand)	50	
IL12 (ligand)		30
